Assay results reported in US20230248800A1 (PHARMAIN, published 2023).

B1: Mpa-Tyr-Phe-Gln-Asn-Cys-Pro-Lys(X)a-Gly-NH2; (X)a = (Gly)6 [SEQ ID NO. 20] (peptide)
peptide: XFQNCPXG
modifications: Mpa at position 1, disulfide bond between Mpa and Cys; (Gly)6 on the side chain of Lys 8; C-terminal amide
B2: Mpa-Tyr-Phe-Gln-Asn-Cys-Pro-Lys(X)a-Gly-NH2; (X)a = (Gly)9 [SEQ ID NO. 23] (peptide)
peptide: XFQNCPXG
modifications: Mpa at position 1, disulfide bond between Mpa and Cys; (Gly)9 on the side chain of Lys 8; C-terminal amide
B3: Mpa-Tyr-Phe-Hgn-Asn-Cys-Pro-Lys(X)a-Gly-NH2; (X)a = Ac [SEQ ID NO. 28] (peptide)
peptide: XFXNCPXG
modifications: Mpa at position 1, disulfide bond between Mpa and Cys; Hgn at position 4; acetyl (Ac) on the side chain of Lys 8; C-terminal amide
B4: Mpa-Tyr-Phe-Hgn-Asn-Cys-Pro-Lys(X)a-Gly-NH2; (X)a = Lauric acid [SEQ ID NO. 27] (peptide)
peptide: XFXNCPXG
modifications: Mpa at position 1, disulfide bond between Mpa and Cys; Hgn at position 4; lauric acid on the side chain of Lys 8; C-terminal amide
B5: Mpa-Tyr-Phe-Hgn-Asn-Cys-Pro-Lys-Gly-NH2 [SEQ ID NO. 25] (peptide)
peptide: XFXNCPKG
modifications: Mpa (mercaptopropionic acid) at position 1, disulfide bond between Mpa and Cys; Hgn (homoglutamine) at position 4; C-terminal amide
B6: Mpa-Tyr-Phe-Hgn-Asn-Cys-Pro-Dap-Gly-NH2 [SEQ ID NO. 17] (peptide)
peptide: XFXNCPXG
modifications: Mpa at position 1, disulfide bond between Mpa and Cys; Hgn at position 4; Dap at position 8; C-terminal amide
B7: Mpa-Tyr-Phe-Hgn-Asn-Cys-Pro-Lys(12-aminododecanoic acid)-Gly-NH2 [SEQ ID NO. 19] (peptide)
peptide: XFXNCPXG
modifications: Mpa at position 1, disulfide bond between Mpa and Cys; Hgn at position 4; 12-aminododecanoic acid on the side chain of Lys 8; C-terminal amide
B8: Mpa-Tyr-Phe-Hgn-Asn-Cys-Pro-dLys-Gly-NH2 (note: dLys = D-Lys) [SEQ ID NO. 18] (peptide)
peptide: XFXNCPKG
modifications: Mpa at position 1, disulfide bond between Mpa and Cys; Hgn at position 4; D-Lys at position 8; C-terminal amide
B9: Mpa-Tyr-Phe-Hgn-Asn-Cys-Pro-Lys(X)a-Gly-NH2; (X)a = (Gly)9-Ac [SEQ ID NO. 26] (peptide)
peptide: XFXNCPXG
modifications: Mpa at position 1, disulfide bond between Mpa and Cys; Hgn at position 4; (Gly)9-Ac on the side chain of Lys 8; C-terminal amide
B10: Mpa-Tyr-Phe-Hgn-Asn-Cys-Pro-Lys(X)a-Gly-NH2; (X)a = Dap [SEQ ID NO. 29] (peptide)
peptide: XFXNCPXG
modifications: Mpa at position 1, disulfide bond between Mpa and Cys; Hgn at position 4; Dap on the side chain of Lys 8; C-terminal amide

What follows are binders tested against T1, human V1a receptor (human, UniProt P37288 1-418) (assay: cell-based or functional assay).
T1 sequence (P37288 whole entry): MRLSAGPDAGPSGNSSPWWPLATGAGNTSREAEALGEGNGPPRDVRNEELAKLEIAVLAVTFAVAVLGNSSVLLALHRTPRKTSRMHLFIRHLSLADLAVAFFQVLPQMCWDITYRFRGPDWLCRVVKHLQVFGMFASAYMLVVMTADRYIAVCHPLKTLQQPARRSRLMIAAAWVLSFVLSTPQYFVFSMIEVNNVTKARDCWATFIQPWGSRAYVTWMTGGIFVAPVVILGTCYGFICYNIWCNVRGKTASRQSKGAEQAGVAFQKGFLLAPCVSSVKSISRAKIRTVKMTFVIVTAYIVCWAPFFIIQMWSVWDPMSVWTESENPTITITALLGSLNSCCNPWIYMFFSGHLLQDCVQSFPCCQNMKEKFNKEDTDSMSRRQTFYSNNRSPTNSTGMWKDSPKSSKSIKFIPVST

Estimated V1a EC50 (calcium flux) [µM]	Binder
0.0273	B1
0.0126	B2

Biological target: T1, human V1a receptor
Assay: cell-based or functional assay
Remark: another data set of the same source

Estimated V1a EC50 (calcium flux) [µM]	V1a Highest agonist effect (% of AVP)	Binder
> 10	30 % of AVP	B3
> 10		B4
0.0052	42.8 % of AVP	B5
> 10	3.5 % of AVP	B6
> 10	2.5 % of AVP	B7
> 10	0.2 % of AVP	B8
> 10	40 % of AVP	B9
1.34	7.5 % of AVP	B10
